The assay addresses GST-Rif Q75L (UniProt Q9HBH0). The assay can be described thus: pull-down.

“And” between values parts separate entries of the source, which are not always exact repeats. Equal values may be shown once.

B1: MBP-Nt (mDia2 N-terminus, 1-528) (domain or fragment)
chain: MERHRARALGRDSKSSRRKGLQSAPPAGPYEPGEKRPKLHLNIRTLTDDMLDKFASIRIPGSKKERPPLPHLKTVSGISDSSSLSSETMENNPKALPESEVLKLFEKMMEDMNLNEDKKAPLREKDFGIKKEMVMQYINTASKTGSLRSSRQISPQEFLHELKMGYTDERLFTYLESLRVSLTSHPVSWVQSFGHEGLGLLLDILEKLINGQIQEKVVKKTQHKVIQCLRALMNTQYGLERIMSDKRSLSLLAKAMDPRQPAMMADVVKLLSAVCIVGEESILEEVLEALTSAGEERKIDRFFSIVEGLRHNSVNLQVACMQLINALVTSPDDLDFRLHLRNEFMRCGLKEILPNLKGIKNDGLDIQLKVFDEHKEEDLSEFFHRLEDIRAELDEASDVYSMLWDTVKETRAEGHFLSILQHLLLIRNDRFIREQYFKLIDECVSQIVLHRDGTDPDFTYRKRLDLDLSQFVDVCIDQAKLDEWEEKASEHCKKFEKECTDHQETQAQLQKREAKINELQAELQAFKS
As for B1, the fold increase of band intensity over the GST control is 2.4 fold and 3.8 fold.

B2: MBP-NtΔBD (mDia2 91-528) (domain or fragment)
chain: NNPKALPESEVLKLFEKMMEDMNLNEDKKAPLREKDFGIKKEMVMQYINTASKTGSLRSSRQISPQEFLHELKMGYTDERLFTYLESLRVSLTSHPVSWVQSFGHEGLGLLLDILEKLINGQIQEKVVKKTQHKVIQCLRALMNTQYGLERIMSDKRSLSLLAKAMDPRQPAMMADVVKLLSAVCIVGEESILEEVLEALTSAGEERKIDRFFSIVEGLRHNSVNLQVACMQLINALVTSPDDLDFRLHLRNEFMRCGLKEILPNLKGIKNDGLDIQLKVFDEHKEEDLSEFFHRLEDIRAELDEASDVYSMLWDTVKETRAEGHFLSILQHLLLIRNDRFIREQYFKLIDECVSQIVLHRDGTDPDFTYRKRLDLDLSQFVDVCIDQAKLDEWEEKASEHCKKFEKECTDHQETQAQLQKREAKINELQAELQAFKS
With B2, the fold increase of band intensity over the GST control was 6 fold and 9.2 fold.

Values taken from paper PMC3020915.
